Data: patent US20160264662A1 (US Dept. of Health and Human Services, published 2016)

Target: T1, human TEM8 (hTEM8) expressed on CHO or 293 cells (human, UniProt Q9H6X2 33-564)
T1 construct: also called CHO TEM8
Test: cell-based ELISA-type titration of m825-MMAE on CHO cells overexpressing TEM8, with TEM8-negative CHO cells as control; absorbance at 450 nm against Log (ng/well)

T1 sequence (Q9H6X2 33-564 limits assumed): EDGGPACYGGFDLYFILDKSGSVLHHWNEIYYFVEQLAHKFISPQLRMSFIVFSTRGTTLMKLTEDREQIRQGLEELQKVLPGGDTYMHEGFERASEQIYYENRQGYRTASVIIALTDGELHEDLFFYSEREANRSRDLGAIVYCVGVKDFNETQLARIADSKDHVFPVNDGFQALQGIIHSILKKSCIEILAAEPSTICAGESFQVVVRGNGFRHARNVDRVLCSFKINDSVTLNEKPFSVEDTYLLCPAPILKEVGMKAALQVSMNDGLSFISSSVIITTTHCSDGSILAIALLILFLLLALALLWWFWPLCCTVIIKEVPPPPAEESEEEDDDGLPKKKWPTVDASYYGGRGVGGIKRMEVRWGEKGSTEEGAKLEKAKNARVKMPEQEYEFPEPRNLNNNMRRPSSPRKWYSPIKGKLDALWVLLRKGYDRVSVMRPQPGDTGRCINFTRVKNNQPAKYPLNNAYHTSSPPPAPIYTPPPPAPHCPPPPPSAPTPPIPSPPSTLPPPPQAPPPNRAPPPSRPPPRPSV

B1: m825-MMAE conjugate (m825 antibody in human IgG1 format conjugated to MMAE) (other)
VH: QVQLVQSGAEVKKPGTSVKVSCKVPGYTFSSYAISWVRQAPGQGLEWMGGIIPIFGTTNYAQKFQGRVTITGEESTSTVYMELSSLRSEDTAVYYCARDTDYMFDYWGQGTLVTVSS
VL: SSELTQDPVVSVALGETVSITCQGDNLRDFYASWYQQKPGQAPLLVMYGKNRRPSGIPDRFSGSTSGNTLSLTITGAQAEDEADYYCSSRDNSKHVVFGGGTKVTVL
modifications: MMAE with stretcher unit, Val-Cit peptide cleavage site and spacer, attached to thiol groups formed by partial reduction of inter-chain disulfide bonds (positions not stated)
notes: also called anti-TEM8-MMAE
- EC50 (read off the curve): ~2 ng/well
